Experimental data from US20120270800A1.

Target: KIX
Assay: fluorescence polarization

Kd: 89 nM
Substance: MLL WT
